B1: Thermoanaerobacter tengcongensis L144F H-NOX-foldon-His6 fusion protein (monomer unit) (other)
chain: MKGTIVGTWIKTLRDLYGNDVVDESLKSVGWEPDRVITPLEDIDDDEVRRIFAKVSEKTGKNVNEIWREVGRQNIKTFSEWFPSYFAGRRLVNFLMMMDEVHLQLTKMIKGATPPRLIAKPVAKDAIEMEYVSKRKMYDYFLGFIEGSSKFFKEEISVEEVERGEKDGFSRLKVRIKFKNPVFEYKKNLEGSGGYIPEAPRDGQAYVRKDGEWVLLSTFLRGSHHHHHH
modifications: heme (porphyrin IX) cofactor bound non-covalently (so in the source)
notes: 229 amino acids, 26,677 AMU as a monomer; Three of these chains associate through the foldon domain to form the about 80 kDa H-NOX trimer; It is entered as the monomer unit so that the self-association can be written as a pair; also called H-NOX-foldon fusion protein; H-NOX-foldon protein
B2: H-NOX variant L144F-foldon fusion protein with no His6 tag at the C-terminus (monomer unit of the trimer) (other)
chain: MKGTIVGTWIKTLRDLYGNDVVDESLKSVGWEPDRVITPLEDIDDDEVRRIFAKVSEKTGKNVNEIWREVGRQNIKTFSEWFPSYFAGRRLVNFLMMMDEVHLQLTKMIKGATPPRLIAKPVAKDAIEMEYVSKRKMYDYFLGFIEGSSKFFKEEISVEEVERGEKDGFSRLKVRIKFKNPVFEYKKNLEGSGGYIPEAPRDGQAYVRKDGEWVLLSTFL
modifications: non-covalently bound heme cofactor is not carried by the letters
notes: No His6 tag; also called H-NOX+foldon; L144F H-NOX trimer without His6

How the values were obtained:
[1] = target: the molecule itself; assay: analytical size exclusion chromatography (Superdex 200 10/300 GL); self-association into a homotrimer
[2] = target: the molecule itself; assay: size exclusion chromatography; self-association of H-NOX+foldon monomers into a homotrimer

Protein | binding result [1] | binding result [2]
B1 | binds | 
B2 |  | binds

Reference: patent US10385116 (OMNIOX, dated 2019)
